Data reported in US9725708B2, “Methods of modulating ubiquitin ligase activity” (Board of Supervisors of Louisiana State University and …, priority 2012, dated 2017).
Like-named read-outs stand apart in the source and are kept apart here. No end group written: not given here.

Experiments:
[1] = target: T1, GST (Schistosoma japonicum, UniProt P08515); assay: GST dimerization; format: binding; details: predicted from ΔΔGbinding of GST-E6APΔ495 vs E6APΔ495
[2] = system: E6AP ligase; assay: E6AP-catalyzed 125I-polyubiquitin chain formation, initial rates; format: biochemical, Human; details: free GST less than 5 μM; GST-E6AP
Method: (§1) E6AP-catalyzed ^125I-Ubiquitin Conjugation Assay: The E3 ligase activity of recombinant E6AP ligase was quantitated in kinetic assays under initial velocity conditions (Ronchi et al., (2013) J. Biol. Chem. 288, 10349-10360, Ronchi & Haas (2012) Methods Mol. Biol. 832: 197-218). Rates of E6AP-catalyzed ^125I-polyubiquitin chain formation were measured at 37° C. in incubations of 25-μl final volume containing 50 mM Tris-HCl (pH 7.5), 1 mM ATP, 10 mM MgCl2, 1 mM DTT, 10 mM creatine phosphate, 1 IU of creatine phosphokinase, 5 μM ^125I-ubiquitin (approximately 1.5×10^4 cpm/pmol), 50 nM human Uba1, and the indicated concentrations of UbcH7 and E6AP ligase (Siepmann et al., (2003) J. Biol. Chem. 278: 9448-9457; Baboshina et al., (2001) J. Biol. Chem. 276: 39428-39437).
(§2) Reactions were initiated by the addition of ^125I-ubiquitin. After 10-30 min, the reactions were quenched by the addition of 25 μl of 2×SDS sample buffer containing 0.3% (v/v) β-mercaptoethanol, and then the samples were heated to 100° C. for 3 min. The polyubiquitin conjugates were resolved from free ^125I-ubiquitin by 12% (w/v) SDS-PAGE under reducing conditions at 4° C. and visualized by autoradiography of the dried gels.
(§3) Polyubiquitin chain formation was measured by excising lanes between the top of the resolving gel and the top of the stacker gel, representing anchored and free ^125I-polyubiquitin chains, respectively, and quantitating associated ^125I-ubiquitin by γ-counting. Absolute rates of ^125I-polyubiquitin chain formation were calculated from the associated radioactivity and the corrected specific radioactivity for ^125I-ubiquitin. Datum points represent single assay determinations, and complete data sets were evaluated by non-linear regression analysis using GraFit version 5.0 (Erithicus). Active Uba1, E2, and E6AP ligase were independently determined in parallel by their stoichiometric formation of ^125I-ubiquitin thioester.

[3] = target: T1, GST; details: literature value, cited from earlier work
[4] = target: T2, UbcH7˜ubiquitin thioester (Homo sapiens, UniProt P68036); assay: Kinetics of 125I-polyubiquitin chain formation by E6AP ligase forms with respect to [UbcH7]o; format: biochemical
T2 construct: made in house
Method: as §1, §2, §3

[5] = target: T3, E6AP ligase (Homo sapiens, UniProt Q05086); assay: E6AP-catalyzed 125I-polyubiquitin chain formation, initial rates; format: biochemical; details: for mode of action: with respect to [UbcH7]o
T3 construct: corresponding to full-length GST-E6AP; made in house; host or cells: E. coli
T3 sequence (Q05086 1-872 isoform Q05086-3): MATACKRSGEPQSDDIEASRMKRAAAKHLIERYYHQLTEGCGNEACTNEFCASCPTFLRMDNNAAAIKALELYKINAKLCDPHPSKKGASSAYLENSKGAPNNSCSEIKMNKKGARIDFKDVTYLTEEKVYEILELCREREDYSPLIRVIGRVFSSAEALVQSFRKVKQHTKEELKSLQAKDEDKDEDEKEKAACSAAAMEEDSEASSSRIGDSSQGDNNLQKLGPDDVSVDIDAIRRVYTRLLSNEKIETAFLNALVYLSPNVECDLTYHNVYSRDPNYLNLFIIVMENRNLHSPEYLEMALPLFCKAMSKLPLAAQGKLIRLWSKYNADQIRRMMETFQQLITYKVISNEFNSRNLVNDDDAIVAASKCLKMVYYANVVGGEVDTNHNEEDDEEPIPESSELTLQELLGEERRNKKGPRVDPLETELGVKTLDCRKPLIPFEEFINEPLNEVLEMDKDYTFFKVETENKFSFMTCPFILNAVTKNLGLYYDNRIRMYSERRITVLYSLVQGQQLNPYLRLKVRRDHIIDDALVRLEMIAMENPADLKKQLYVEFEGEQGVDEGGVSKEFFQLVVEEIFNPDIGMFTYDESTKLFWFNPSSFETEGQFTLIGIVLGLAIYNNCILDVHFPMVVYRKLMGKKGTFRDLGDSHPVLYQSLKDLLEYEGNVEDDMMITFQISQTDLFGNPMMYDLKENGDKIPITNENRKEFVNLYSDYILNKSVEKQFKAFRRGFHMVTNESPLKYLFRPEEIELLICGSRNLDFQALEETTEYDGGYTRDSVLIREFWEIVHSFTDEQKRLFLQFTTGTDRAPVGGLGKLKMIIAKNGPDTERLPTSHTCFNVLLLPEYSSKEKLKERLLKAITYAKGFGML
Method: as §1, §2, §3

[6] = target: T4, His6-E6AP ligase (Homo sapiens, UniProt Q05086); assay: Static light-scattering of His6-E6AP ligase oligomer
T4 construct: Full-length recombinant His6-E6AP ligase was isolated from the medium; made in house; host or cells: Sf9 insect cells (baculovirus)
T4 sequence (Q05086 1-872 isoform Q05086-3): T3 sequence (Q05086 1-872 isoform Q05086-3)
Method: Static Light-scattering Measurements: His6-E6AP ligase after the His trap affinity purification step was further purified by FPLC using a Mono Q 5/50 column (Amersham Biosciences) equilibrated in 50 mM Tris-HCl (pH 7.5) and 1 mM DTT. Recombinant His6-E6AP ligase eluted at 300 mM NaCl in a 0-500 mM gradient (16 mM/ml, 1 ml/min). The molecular weight of His6-E6AP ligase was determined in solution at 37° C. by static light-scattering using a 235-DynaPro NanoStar laser light-scattering spectrometer at 663 nm wavelength (Wyatt Technology Corp.). Spectra were collected for 18 μM His6-E6AP ligase in 50 mM Tris-HCl (pH 7.5) containing 200 mM NaCl. The effect of Ac-PheNH2 on the molecular weight of His6-E6AP ligase was determined in 50 mM Tris-HCl (pH 7.5) containing 200 mM NaCl, 16 μM His6-E6AP ligase total protein, 61 mM Ac-PheNH2, and 8% (v/v) carrier methanol. The molecular weight of E6AP ligase was also evaluated in reactions containing 0-350 μM Ac-NRIRMYSERRITVLYSL (SEQ ID NO: 1) in 50 mM Tris-HCl (pH 7.5), 250 mM NaCl, 1 mM DTT, and 17 μM His6-E6AP. Data were analyzed with Dynamics® software at both default and maximum sensitivity to detect the presence of low concentrations of E6AP ligase oligomeric forms.

[7] = Table 1, Hect domain row is monoubiquitination
[8] = non-competitive with respect to [UbcH7]o, His6-E6AP, read-out: Ki

T1 sequence (P08515 whole entry): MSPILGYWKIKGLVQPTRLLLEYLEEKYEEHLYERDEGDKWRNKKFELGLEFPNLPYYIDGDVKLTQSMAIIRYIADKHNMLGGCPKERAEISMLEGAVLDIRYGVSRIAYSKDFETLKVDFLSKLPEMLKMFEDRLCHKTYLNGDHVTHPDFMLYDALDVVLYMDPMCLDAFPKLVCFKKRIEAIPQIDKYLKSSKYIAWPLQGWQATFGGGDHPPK
T2 sequence (P68036 whole entry, other chains not shown): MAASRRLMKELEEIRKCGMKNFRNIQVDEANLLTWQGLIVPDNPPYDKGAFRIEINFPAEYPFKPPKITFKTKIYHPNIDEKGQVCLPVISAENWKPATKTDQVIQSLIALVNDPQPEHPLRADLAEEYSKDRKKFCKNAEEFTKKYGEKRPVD

For “GST: recombinant free glutathione-S-transferase”, the “Kd for GST association” value [1] is given as 1.6 µM, the “K½ of decrease in initial rate of polyubiquitin chain formation” value [2] is given as “approximately 1 μm” and the Kd ([3]; b128, read-out: Kd for GST dimerization) is given as 0.6 µM. The “Kd for GST association, published value” ([3]; b130) was 0.6 µM.

In the case of “Homogeneous His6-E6AP: baculoviral-expressed full-length His6-E6AP ligase”, the Km [4] is reported as 0.046 ± 0.007 µM, the kcat [4] is reported as 0.63 ± 0.03 s⁻¹ and the “kcat higher than heterogeneous GST-E6AP” value [4] is reported as 20 fold. The kcat ([4]; Table 1) was 6.3 ± 0.3 × 10^−1 s^−1 and the Km [4, 7] was 0.046 ± 0.007 µM.

With “Ac-NRIRMYSERRITVLYSL [Ac-NRIRMYSERRITVLYSL peptide, Ac-NRIRMYSERRITVLYSL]” the Ki ([5]; His6-E6AP, hyperbolic dependence, semi-reciprocal plot, read-out: Ki (apparent)) was 22 ± 2 µM, the mode of action [5] was “non-competitive inhibitor” and the “effect on E6AP ligase oligomer” value [6] was “promotes dissociation”.

In the case of CC(=O)N[C@@H](Cc1ccccc1)C(N)=O [Ac-PheNH2, N-acetyl-L-phenylalanylamide], the Ki ([5]; 125I-polyubiquitin chain formation, read-out: Ki) is reported as 12000 ± 3000 µM, the Ki ([5]; His6-E6AP, non-competitive with respect to [UbcH7]o, absence or presence of 44 mM Ac-PheNH2, read-out: Ki) is reported as 12000 ± 3000 µM and the “effect on polyubiquitin chain formation” value ([5]; inhibitors, at higher concentrations) is reported as “quantitative inhibition”. The mode of action [5] was “non-competitive inhibitor”, the “effect on E6AP ligase oligomer” value [6] was “disrupts trimer formation” and the “molecular weight of His6-E6AP ligase peak after addition” value ([6]; 61 mM Ac-PheNH2, 16 μM His6-E6AP, 8% methanol) was 104 kDa.

B1: GST-E6AP ligase Hect domain: GST fusion of E6AP ligase Hect domain residues 450-852 (protein, UniProt Q05086 450-852, looked up, fragment)
chain: INEPLNEVLEMDKDYTFFKVETENKFSFMTCPFILNAVTKNLGLYYDNRIRMYSERRITVLYSLVQGQQLNPYLRLKVRRDHIIDDALVRLEMIAMENPADLKKQLYVEFEGEQGVDEGGVSKEFFQLVVEEIFNPDIGMFTYDESTKLFWFNPSSFETEGQFTLIGIVLGLAIYNNCILDVHFPMVVYRKLMGKKGTFRDLGDSHPVLYQSLKDLLEYEGNVEDDMMITFQISQTDLFGNPMMYDLKENGDKIPITNENRKEFVNLYSDYILNKSVEKQFKAFRRGFHMVTNESPLKYLFRPEEIELLICGSRNLDFQALEETTEYDGGYTRDSVLIREFWEIVHSFTDEQKRLFLQFTTGTDRAPVGGLGKLKMIIAKNGPDTERLPTSHTCFNVLLLPEY
modifications: HECT domain GST fusion
In the case of B1, the Km [4] is reported as 0.089 ± 0.011 µM, the “kcat lower than full-length E6AP ligase” value [4] is reported as 2000 fold and the kcat ([4]; Table 1) is reported as 3.2 ± 0.1 × 10^−4 s^−1. The Km [4, 7] was 0.089 ± 0.011 µM.

B2: E6(HPV16)Δ91: recombinant E6 N-terminal domain encompassing residues 1-91 (protein, UniProt P03126 1-91, looked up, fragment)
chain: MHQKRTAMFQDPQERPRKLPQLCTELQTTIHDIILECVYCKQQLLRREVYDFAFRDLCIVYRDGNPYAVCDKCLKFYSKISEYRHYCYSLY
With B2 the Ki ([5]; hyperbolic concentration dependence, not shown, read-out: apparent Ki) was 4 µM, the Ki [5, 8] was 6 µM and the mode of action [5] was “non-competitive inhibition”.

B3: E6(HPV16)Ct: recombinant E6 C-terminal domain encompassing residues 89-158 (protein, UniProt P03126 89-158, looked up, fragment)
chain: SLYGTTLEQQYNKPLCDLLIRCINCQKPLCPEEKQRHLDKKQRFHNIRGRWTGRCMSCCRSSRTRRETQL
In the case of B3, the Ki [5, 8] is reported as 4 µM and the mode of action [5] is reported as “non-competitive inhibitor”.
